Test: label from the status in PepcDB records

Row | Sequence | protein production
1 | MEITPKRYWRRWRGYEKLDGSSETTSGRRKGKRVKMDPTRKKRFWRIKIVPKLRILKTASPKKFLVWLRDSYVKMMMRLANSRVVGSSGYGGSGFGSGQMKEYDEKMLVEIYKSILMVQAQGNLVHRDTPNNNLKLPSEPAVVSVVSSVVTC | failed
2 | MADISLDELIRKRGAAAKGRLNARPGVGGVRSRVGIQQGLLSQSTRTATFQQRFDARQKIGLSDARLKLGVKDAREKLLQKDARFRIKGKVQDAREMLNSRKQQTTVPQKPRQVADAREKISLKRSSPAAFINPPIGTVTPALKLTKTIQNLYDLDEDDDGIASVPTKQMKFAASGGFLHHMAGLSSSKLSMSKALPLTKVVQNDAYTAPALPSSIRTKALPVLTSPGT | not failed
3 | MKQMKFKYAYQLFFTQFIILLIACIMIGVLVSHSLKDYFYQSQVDDLTSYGQTISRDIRYSPQDATMQVLNTYQRILDVKKIHYTIKNANDETIYPTQMNQPLPKDFSISADDKKKLESGETVSKKIDNRFNKEMTIVYVPIMNGDKFVGSIVLNSPISGTEQVIGTINRYMFYTILLSITVALILSAILSKLQVNRINKLRAATKDVIQGNYNARLKENNFDEIGALAIDFNKMTQTLETSQEEIERQEKRRRQFIADVSHEMRTPLTTISGLTEGLVNDIIPKSETDRCIALIDTEARRLTKLVNENLDYEKIRSNKIKLQKTRFNGKEFLELIKEQLDYVASEKGNTITVAIDKDMAIYADYDRLTQVFINIVKNSVQFTENGQITLTGTQDYKESVLTITDTGIGMNTEELEQIWERFYKADMSRTNTAFGESGIGLSIVKQLIEYHDGSITVTSEPNKGTSFTIRLPFFQDNEQ | failed
4 | MVISSKITDDCSYVKCLSFMMKSRTGNILLAQPENLAHDDDLSQSLLSQVTAVWLWTSLSYGGKPIFNRGISQLVTKKWTIIFNTENTNNHVSLPAPQEISPRLRLASSGTWRLVIGTWE | failed
5 | MTAPDRSPPRYKSDLIYGLNDRPHFSAAIFAALQHVLASFVGIISPTLIFGGVLGLESELPYLISMALFVSGLGTFVQARRLGPIGSGLLCVQGTSFSFISVLLSAGFMVKGRGGDTNEILSTIFGICFVAAFIEMFLSQFIGKLRKLITPVVTGTIITLMGLSLIKVAVTDMAGGYGASDLGAASNLGLAALVLLTIVVLNRFNHPMLRLGSIVIGLTLGFVVAWMLGRVDMAAMPEVPLVSVPVPFKYGFSFDLIAFIPLAVIFLISPLEAAGDLTANSMISQQPVKGPLYIKRIKSGLLADGFNSAVAAVFNSLPMVTFAQNNGVIQLTGVASRYVAYFIAGLLVLLGLFPVIGAVLQLMPKPVLGGATLIMFGTVAVAGIKILAEAGLHRRNVLIVAISLGMGLGVAAVPEVLRELPKALHNIFESPITVGAFCAIFLNIFLPEEFLELEEDEFDPEAATLKVMQDPDMSGKANS | failed
6 | MLLLHNARILDLTDGSTGEPTDVLLSDRVLALGPEAQQQAHSARVRSIDLGGRLLMPGLWDEHVHVGQWALASRRFLVSQTASCETALEEVATHVKRREGSDEPILQGFGFRPSLWGSNPNARQLDAVTGDRAVILVSADLHSSWCNTAAMRKLGIEGDGFLREQTSFDVQTQLSQVNPHVLDGWVGSCSTAAARLGITGIRDMEFSTDVETWLQRKADGRCPLRVEVSVYPERLDEAIAQVLATGQAPATDKPGPSRVAMGPLKVIVDGSMSTRTAWCMDSYPAGAGPDGAGIDSVTPEDLVDLMNRAKTGNLQCAAHAIGDRAAKEVLNAFEVTGISGSIEHAQVLTDADVRRFAALGVRASVQPLHLVDDRDATDVMWSDRADRCFRFADMVRAGTELALGSDAPVSPVDPWGAIRVAVERTGDRRPSWHPEQALTLSQAITASTRHVTQVVTGGPGDVIAVAHNPFDLSGNALAGITSDLTVVGGEVTAAAL | failed
7 | MDDERTVRSEVHVVVEDGEIVAIEDGYASGDEVVDATEEVVIPGLVNCHTHMYALPIRGAPLAASPESFYEALVDIWWNVDEAFTERDARLSALGSSVEMLQSGVTTFCDNYSGPNTLPGGLDAVAEGVAQTPIRGMITFETTARNSEAQARDGIAENQRFIDEAEDQYDTVSGHYCLHTLFTNTEDIVAECVDRATDDNRPIQIHLEEGLVDVHESIADYGERPVFALEDMGFFDAEVIAAHCVHSTESEIEVLAEHDVNVAHNPYSNINNAVGIADVETMQAHEMTIGLGDDGWDPDMFETMRSAVGIHKLKQRNPSGFDMATALEWATIGSAAVLGMDDAVGSIEVGKRGDFVTLDLGPNPVLDGSAPYYVVSAASRADVTRTIIDGESVYDQQSGVTGVDDSDMTAVGDASAELWERL | failed
8 | MIYWGMGMLVIAWLADGGISRLSDLIKEPLALGVLLFCGVWVLGLLWSDSAVIFQGKWRKYFILLTFIPLFSLLSRERLPWVTGALLCSYLGMVILGSYQWAMQEMQGISLLGMSYLHYSAALGIGVILAVFLGWETLSREKRWLSVLSWLIAILLLFLQFNQSARGILLATLMALLLMIVLRYRAEWRMLTGGLTAIMAMVILFATSSDIFHDRLQQAGTDLRSFQQGDYQTSVGYRLAMWDVGLHGIAEHPLLGHGSGMAKKYFDDSIITYKQGIYRNLPEFQETAHFHNELIEIGMHLGLLGILAFVFLLWCWFQIFRQNRMALLGSAIVCFICISGLTDTFLLYSGTPPFLLTVTAIAVCWRKYREDPDRIGQKYTSGERNGNQNPQMFLMSA | failed
9 | MNKALIVILSTVALDAIGAGLIFPILPDILVEVTGGGDIGFLYGVMLGVFAVMQFVFSPILGALSDRFGRRPVLLLSLAGTLLDYLVMAFSPLGWVLVVGRAMAGITSANMAVASAYITDITPAEQRAQRFGTVGAVMSLGFIIGPVIGGVIGAWWLRAPFLVAALFNGLNLFVALFVLPESRKAGPGKFAFKELNPLAPLVWLWNFKPLLPLVTVSVVFGLVAAIPGTIWVLYGAERFGWDSVHMGLSLSVFGVSGALAQAFLVGPLSRRFGDLGTLMIGVGFDMLAYMLMAFANQSWMGYAVAPLFALGGVAMPALQSLVTSRVSDDQQGQLQGVLASLMSLAGIIGPVLTTAVFFSTKSIWIGTIWLVGAALYLLALPLFATVKTPKAVAA | failed
10 | ALSGSSGYKFGVLAKIVNYMKTRHQRGDTHPLTLDEILDETQHLDIGLKQKQWLMTEALVNNPKIEVIDGKYAFKPKYNVR | not failed
11 | MFLEIAKVYLQGLGLASITVILVGIIWVFWRAKKNIDKTARERQSVLYDVLLIALMTAPILAFAFVAIILMIKA | failed
12 | GGLTEICRKPVSPGCISSVSDWLISIGLPMYAGTLSTAGFSTLSQVPSLSHTCLQEAGITEERHIRKLLSAARLFKLPPGPEAM | not failed
13 | MRMNMKKISLSLLTLGVLSGLSINASALPADFPVMPAATAPVSQYVTAVNADSSITFRLFAPTAKQVSVFTGSTPDSIVSHAMTKDEAGVWSFKTPVQAPNLYEYFFSVDGFRTIDTGTAFTKPQRQVNTSLILVPGSILDVRQIPHGELRTLTYHSNALKSERQMYVWTPPGYSESSKPLPVLYFYHGFGDTGASAVVQGRIPQMMDNLLAEKKIEPMLVVIPDTETDVPGIIPEEYPPQERRKVFYPRNALAADRELIHDIIPAIGKRFNVRQDANGRALAGLSQGGYQALVSGMSHLDHFGWLATFSGVTTETVPNMAVAAQLERPEQINQQLKNLTVVIGETDNITGKDIAGLKTMLEQKNIRFDYTHYPNLGHEMDVWRPAYSEFVQKLFK | failed
14 | MKQTELLKGILEGLVLAIIQRKETYGYEITKILNDQGFTEIVEGTVYTILLRLEKNQWVIAEKKPSEKGPMRKFYRLTSSGEAELADFWQRWTLLSKQVNKMKKNGGIEHVKF | not failed
15 | MAFTPFPPRQPTASARLPLTLMTLDDWALATITGADSEKYMQGQVTADVSQMAEDQHLLAAHCDAKGKMWSNLRLFRDGDGFAWIERRSVREPQLTELKKYAVFSKVTIAPDDERVLLGVAGFQARAALANLFSELPSKEKQVVKEGATTLLWFEHPAERFLIVTDEATANMLTDKLRGEAELNNSQQWLALNIEAGFPVIDAANSGQFIPQATNLQALGGISFKKGCYTGQEMVARAKFRGANKRALWLLAGSASRLPEAGEDLELKMGENWRRTGTVLAAVKLEDGQVVVQVVMNNDMEPDSIFRVRDDANTLHIEPLPYSLEE | not failed
